The text below walks through data of patent US5254534A, “Adjuvant for cancer immunotherapy” (Green Cross Corporation, priority 1988, dated 1993).

Where two headings read alike, the source gives them in different places.

One data set concerns TNF activity. As to the kind of experiment: Induction of TNF activity by mixed culture of monocytes and PICIBANIL (OK-432) plus CSF; cytocidal activity against L929 cells (crystal violet). In kind it is cell-based. The following applies: conclusions from Table 2. As for the experimental part: (3) Incubation was performed at 37° C. for 72 hours in a 5% CO2 atmosphere.
(4) The supernatant was assayed for TNF activity at timed intervals. The TNF activity was determined by measuring the cytocidal activity against L929 cells in terms of the absorbance of crystal violet.

In data set [1] the test system is mouse marrow cells. Briefly: Colony stimulating activity: colony formation of mouse marrow cells on soft agar. The following applies: for specific activity: purified glycoprotein/CSF of the examples. In kind it is cell-based. The protocol: In biological activity measurement, the colony formation of mouse marrow cells in vitro was used as an activity measurement parameter. […] Thereafter, cell aggregates consisting of 50 or more cells were counted as colonies under an invert microscope.
One colony formed is taken as one unit.
Thus, the CSF sample was admixed with 1 ml of McCoy's 5A medium containing 0.3% agar, 20% fetal calf serum (FCS) and 1×10^5 mouse marrow cells. […] Thereafter, cell aggregates consisting of 50 or more cells were judged as colonies and counted. The colony stimulating activity was expressed in units. One unit was defined as the quantity of CSF required for the formation of one colony. The specific activity was expressed in terms of the number of colonies (units) formed per milligram of the CSF protein. […] The colonies formed were stained with hematoxylin-eosin for morphological classification.

Data set [2] is described as follows: Thermal stability of the CSF (60°C, then colony stimulating activity). The class given is physicochemical. The following applies: 1 μg/ml, dilute buffer pH 7.0, 60°±0.5° C., 60 minutes. As for the experimental part: The CSF was dissolved in a dilute buffer (pH 7.0) to a concentration of 1 μg/ml, and the solution was heated at 60°±0.5° C. for 60 minutes and then assayed for colony stimulating activity (to be mentioned later herein).

A further data set in a line: Isoelectric point. The following applies: polyacrylamide gel isoelectric focusing and sucrose density gradient isoelectric focusing. The class given is physicochemical. The source says: The isoelectric point (pI) as determined by the polyacrylamide gel isoelectric focusing and sucrose density gradient isoelectric focusing techniques is 3.1-3.7.
In another data set the test system is marrow cells. The following applies: cited from earlier work.
The conditions of data set [3]: cited from earlier work.
For data set [4] the following is noted: 1% (by weight) aqueous solution; cited from earlier work.
The conditions of data set [5]: 1% (by weight) aqueous solution, 60° C. ±0.5° C., 30 minutes; cited from earlier work.
The test system of another data set is human marrow cells. The following applies: cited from earlier work.
The subject of data set [6] is mouse marrow cells. The following applies: CSF (iv), typical production method; cited from earlier work.
The conditions of data set [7]: 60±0.5° C., 60 minutes; CSF (iv); cited from earlier work.
The conditions of data set [8]: polyacrylamide gel isoelectric focusing and sucrose density gradient isoelectric focusing; CSF (iv); cited from earlier work.
Data set [9] relates to mammalian monocyte-macrophage series cells. The following applies: cited from earlier work.

B1: Example 4: human urine-derived CSF isolated and purified in the same manner as in Example 3 with TSKG-3,000SW and phenyl-5pw (protein, UniProt P09603 33-554, looked up)
Macrophage colony-stimulating …: EEVSEYCSHMIGSGHLQSLQRLIDSQMETSCQITFEFVDQEQLKDPVCYLKKAFLLVQDIMEDTMRFRDNTPNAIAIVQLQELSLRLKSCFTKDYEEHDKACVRTFYETPLQLLEKVKNVFNETKNLLDKDWNIFSKNCNNSFAECSSQDVVTKPDCNCLYPKAIPSSDPASVSPHQPLAPSMAPVAGLTWEDSEGTEGSSLLPGEQPLHTVDPGSAKQRPPRSTCQSFEPPETPVVKDSTIGGSPQPRPSVGAFNPGMEDILDSAMGTNWVPEEASGEASEIPVPQGTELSPSRPGGGSMQTEPARPSNFLSASSPLPASAKGQQPADVTGTALPRVGPVRPTGQDWNHTPQKTDHPSALLRDPPEPGSPRISSLRPQGLSNPSTLSAQPQLSRSHSSGSVLPLGELEGRRSTRDRRSPAEPEGGPASEGAARPLPRFNSVPLTDTGHERQSEGSFSPQLQESVFHLLVPSVILVLLAVGGLLFYRWRRRSHQEPQRADSPLEQPEGSPLTQDDRQVELPV
Turning to B1, the “TNF activity (in words)” value in the data set with TNF activity is “does not cause TNF activity expression”. Also, in the data set on mouse marrow cells [1], the specific activity is 1.5×10^8 units/mg protein.

B2: Example 3: purified CSF from human urine, homodimer of 70,000-90,000 daltons (protein, UniProt P09603 33-554, looked up)
Macrophage colony-stimulating …: B1 Macrophage colony-stimulating …
For B2, in the data set on mouse marrow cells [1] (hematoxylin-eosin staining, 7 days at 37° C.), the “proportion of colonies that were monocyte-macrophage colonies” value is “at least 95%”. Besides, the specific activity with mouse marrow cells [1] is 1.4×10^8 units/mg protein. Moreover, in data set [2], the “Thermal stability (colony stimulating activity decrease)” value is recorded as “Almost no activity decrease was observed”. The “isoelectric point (pI)” value in the data set “Isoelectric point” is recorded as 3.1-3.7.

B3: CSF (ii): CSF disclosed in JP-A-63-54398; glycoprotein, molecular weight about 70,000 by gel filtration (protein, UniProt P09603 33-554, looked up)
Macrophage colony-stimulating …: B1 Macrophage colony-stimulating …
Consider B3, for which the “differentiation and proliferation of granulocytic series stem cells” value in the data set with marrow cells was “promotes the differentiation and proliferation of granulocytic series stem cells”.

B4: 2: heat-treated glycoprotein (CSF) from fresh urine collected from healthy humans (protein, UniProt P09603 33-554, looked up)
Macrophage colony-stimulating …: B1 Macrophage colony-stimulating …
modifications: heat-treated
notes: heat-treated glycoprotein (CSF) from fresh urine collected from healthy humans
In the case of B4, the specific activity with mouse marrow cells [1] is recorded as 1×10^7 units/mg protein.

B5: CSF (i): CSF disclosed in U.S. Pat. No. 4,275,056; glycoprotein, molecular weight 75,000-90,000 by gel filtration (protein, UniProt P09603 33-554, looked up)
Macrophage colony-stimulating …: B1 Macrophage colony-stimulating …
With B5, the Solubility in chloroform entry in data set [3] (chloroform) is “slightly soluble”. Also, the “Solubility in ethyl alcohol and acetone” value in [3] (ethyl alcohol and acetone) is reported as “insoluble”. Besides, the Solubility in water entry in [3] (water) is recorded as “soluble”. Moreover, in [4], the pH was 5.0-6.0. Also, the Temperature stability entry in data set [5] is “loses its ability to promote the differentiation and proliferation of human granulocytes”. Further, the “differentiation and proliferation of granulocytes” value with human marrow cells is “promotes the differentiation and proliferation of granulocytes”.

B6: CSF (iv): CSF disclosed in JP-A-63-250400; glycoprotein, homodimer composed of two identical subunits (protein, UniProt P09603 33-554, looked up)
Macrophage colony-stimulating …: B1 Macrophage colony-stimulating …
In the case of B6, the specific activity with mouse marrow cells [6] is recorded as 100,000-20,000,000 units/mg protein. Also, the “Thermal stability (biological activity)” value in data set [7] is “biological activity is not lost”. The “isoelectric point (pI)” value in data set [8] is recorded as 3.1-3.7. Moreover, the colony stimulating activity entry in [9] is recorded as “has colony stimulating activity”.
